The values that follow come from PMC13195613 (Blood Advances, 2026).

This test concerns the target T1, recombinant activated factor VII (UniProt P08709 61-212; P08709 213-466).
T1 sequence (looked up) 1: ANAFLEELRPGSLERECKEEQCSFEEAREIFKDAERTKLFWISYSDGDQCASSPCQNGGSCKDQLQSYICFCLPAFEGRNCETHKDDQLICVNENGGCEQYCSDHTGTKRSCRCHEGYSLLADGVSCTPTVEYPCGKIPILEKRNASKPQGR
T1 sequence (looked up) 2: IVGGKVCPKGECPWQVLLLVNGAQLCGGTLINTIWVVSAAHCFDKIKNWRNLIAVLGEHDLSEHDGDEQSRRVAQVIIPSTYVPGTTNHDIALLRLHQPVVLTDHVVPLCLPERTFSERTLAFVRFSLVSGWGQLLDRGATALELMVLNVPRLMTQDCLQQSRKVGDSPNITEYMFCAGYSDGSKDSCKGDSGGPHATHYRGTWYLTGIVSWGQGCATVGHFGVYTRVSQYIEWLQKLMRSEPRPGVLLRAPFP
The experiment in a line: BLI.

B1: endothelial cell protein C receptor (receptor)
chain: SQDASDGLQRLHMLQISYFRDPYHVWYQGNASLGGHLTHVLEGPDTNTTIIQLQPLQEPESWARTQSGLQSYLLQFHGLVRLVHQERTLAFPLTIRCFLGCELPPEGSRAHVFFEVAVNGSSFVSFRPERALWQADTQVTSGVVTFTLQQLNAYNRTRYELREFLEDTCVQYVQKHISAENTKGSQTSRSYTS
On to B1, for which the binding result is “binds”.
